# From patent US12637662B2, “Cells, islets, and organoids that evade immune detection and autoimmunity, methods of production and use thereof” (SALK INSTITUTE FOR BIOLOGICAL STUDIES, priority 2018, dated 2026)
# Tests used:
# [1] = system: chromatin accessibility in HILO cells; assay: ATAC-Seq chromatin accessibility in HILOs; assay type: cell-based, human; details: sorted GFP+ cells, WNT4 treatment
# Description: […] D. Buenrostro et al., 2015, Current Protocols in Molecular Biology, 109:21-29. Reads were aligned by Bowtie to hg19, and peaks were called by HOMER using default settings. Differential peaks and motif analyses from 2 biological duplicates were identified using HOMER essentially as instructed (see, e.g., S. Heinz et al., 2010, J. Mol. Cell, 38:576-589). Detailed methods for HOMER are freely available, e.g., at http://http://homer.salk.edu/homer/. Briefly, the program searches against the target and background sequences for enrichment of known motifs, and returns motifs enriched with a threshold of 1.5-fold change and a p-value of less than 0.05. Promoter regions, defined as 1 kilobase (kB) upstream from the transcription start site, of genes with enhanced chromatin accessibility upon Wnt4 treatment, were interrogated for enriched motifs of 8-16 bp using HOMER motif analysis.
# postnatal mouse islets = assay: rhWNT4 culture of postnatal islets from WT and β cell specific ERRγKO mice; assay type: cell-based; details: 100 ng/ml for 5 days; WT but not ERRγKO mice
# Description: FIGS. 8A-8H provide images, graphs, a schematic and a diagram showing results related to WNT4 mediated insulin-GFP expression and WNT4-driven metabolic maturation. FIG. 8A presents representative images of mitochondrial content, indicated by MitoTracker (red) staining, in PBS and WNT4 treated HILOs (scale bar, 100 μm). FIG. 8B presents graphs of flow cytometry quantification of insulin expression (GFP) and mitochondrial content in HILOs treated with recombinant human WNT4 (rhWNT4), WNT5A (rhWNT5A), or conditioned medium (CM) from control or WNT5A overexpressing fibroblasts (n=3). Error bars represent SEM. *p<0.05. […]
# Insulin release from intact islets was monitored using batch incubation methods as reported by E. Yoshihara et al., 2016, Cell metabolism, 23:622-634. […] After 30 minutes, the islets were pelleted by centrifugation and secreted insulin levels were determined in the medium by Enzyme Linked Immunosorbent Assay (ELISA), (Rat/mouse Insulin ELISA KIT (Millipore) and Human Insulin ELISA KIT or ultrasensitive human c-peptide ELISA Kit (Millipore) for mouse and human islets, respectively). […] After 30 minutes, the cells were pelleted by centrifugation and c-peptide levels were determined in the supernatant medium using the human c-peptide ELISA KIT (Millipore). […]
molecule,measurement,setting,value
"WNT4: recombinant human Wnt4 protein (R&D Systems), non-canonical WNT maturation factor (protein, UniProt P56705 23-351, looked up) Protein Wnt-4: SNWLYLAKLSSVGSISEEETCEKLKGLIQRQVQMCKRNLEVMDSVRRGAQLAIEECQYQFRNRRWNCSTLDSLPVFGKVVTQGTREAAFVYAISSAGVAFAVTRACSSGELEKCGCDRTVHGVSPQGFQWSGCSDNIAYGVAFSQSFVDVRERSKGASSSRALMNLHNNEAGRKAILTHMRVECKCHGVSGSCEVKTCWRAVPPFRQVGHALKEKFDGATEVEPRRVGSSRALVPRNAQFKPHTDEDLVYLEPSPDFCEQDMRSGVLGTRGRTCNKTSKAIDGCELLCCGRGFHTAQVELAERCSCKFHWCCFVKCRQCQRLVELHTCR",genes with both increased chromatin accessibility and induced expression,[1],123 genes
same,mitochondrial metabolic gene expression and GSIS in neonatal islets,postnatal mouse islets,induced the expression of mitochondrial metabolic genes and improved GSIS function
